In the RNAGym collection of RNA variant scans (doi:10.1073/pnas.2313332121):

B1: TPR t1 (parent)
chain: GACCAAUCUGCCCUCAGAGCUCGAGAACAUCUUCGGAUGCAGAGGAGGCAGGCUUCGGUGGCGCGAUAGCGCCAACGUCCUCAACCUCCAAUGCAUCCCACCACAUGAUGAUGCCUGAAGAGCCUUGGUUUUUUG

Variants of: B1
Assay: polymerase ribozyme fitness, log enrichment relative to wild type (log ratio); higher = more active; in vitro selection for triplet polymerase activity
How it was run: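 Frozen incubation at −7 °C formed the core of a single, triplicate in vitro selection round applied to PCR-built, transcribed mutant libraries of each subunit of a heterodimeric triplet polymerase ribozyme. Extended constructs were gel-excised, captured with streptavidin beads and amplified by RT-PCR, and input and output libraries were Illumina-sequenced with a filter of ≥10 input reads and ≥1 read per output. Fitness is the logarithm of genotype enrichment relative to wild-type enrichment, with inverse-variance-weighted replicate averaging, and the logarithm is base 2.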

Variant | polymerase ribozyme fitness (log ratio)
GACCAAUCUGCCCUCAGAGCUCGAGAACAUCUUCGGAUGCAGAGGAGGCAGGCUUCGUUCGCGCGAUAGCGCCAACGUCCUCAACCUUCAAUGCUUCCCACCACAUGAUGAUGCCUGAAGAGCCUUGGUUUUUUG | -2.05
GACCAAUCUACCCUCAGAGCUCGAGAACAUCUUCGGAUGCAAUGGAGGCAGGCUUCGGUGGCGCGAUAGCGCCAACGUCCUCAACCUCCAAUGCAUCCCACCACAUGAUGAUGCCUGAAGAGCCUUGGUUUUUUG | -1.82
GACCAAUCUGCCCUCAGAGCUCGAGAACAUCUUCGGAUGCAGAGGAGGCAGGCUUCGGUGACGCGAUAGCGCCAACGUCCUCAACCUCAUGUGCAUCCCACCACAUGAUGAUGCCUGAAGAGCCUUGGUUUUUUG | -1.77
GACCAAUAUGCCCUCAGAGCUCGAGAGCAUCUUCGGAUGCAGAGGAGGCAGGCUUUGGUGGUGCGAUAGCGCCAACGUCCUCAACCUCCAAUGCAUCCCACCACAUGAUGAUGCCUGAAGAGCCUUGGUUUUUUG | -1.49
GGCCAAUCUGCCGUCAGAGCUCGAGAACAUCUUCGGAUGCAGAGGAGGCAGGCUUCGGUGGCGCGAUAGCGCCAACGUCCUCAACCUCCAAUGCAUCCCACCACAUGAUGAUGCCUGAAGAGGCUUGGUUUUUUG | 1.11
GACCAAUCUGCCCUCAGAGCUCGAGAACAUCUUCGGAUGCAGAGGAGGCAGGCUUCGGUGGCGCGAUAGCGCCAACGUCCUCAACCUCCAAUGGAUCCCACCACAUGAUGAUGCCCGCAGAGCCUUGGUUUUUUG | -3.89
GACCAAUCUGGCCUCAGAGCUCGAGAACAUCUUCGGAUGAAGAGGAGUCAGGCUUCGGUGGCGCGAUAGUGCCAACGUCCUCAACCUCCAAUGCAUCCCACCACAUGAUGAUGCCUGAAGAGCCUUGGUUUUUUG | -1.6
GACCAAUCUGCGCUCAGAGCUCGAGAACAUCUUCGGAUGCAGAGGAGGCAGGCUUCGAUGAUGCGAUAGCGCCAACGUCCUCAACCUCCAAUGCAUCCCACCACAUGAUGAUGCCUGAAGAGCGUUGGUUUUUUG | 0.824
GACCAAUCUGCCCUCAGAGCUCGAGUACAUCUUCGGAUGCAGAGGAGGCAGGCUUCGGUGGCGCGAUAGCGCCAACGUCCUCAACCUCCAAUGCAUCCCACCACAUGAUGAUGCCUGAAGAGCCUUCGUUUUUUG | -3.57
GACCAAUCUGCCCUCAGAGCUCGAGAACAUCUUCGGAUGCAGAGGAGGCAGGCUUCGGUGGCGCGAUAGCGGCAACGUGCUCAACCUCCAAUGCAUCCCACCACAUGAUGAUGCCUGAAGAGCCUUGGUUUUUUG | -1.67
GACCAAACUGCCCUCAGAGCUCGAGAACAUCUUCGGAUGCAGAGGAGGCAGGCUUCGGUUGCGCGAUAGCGCCAACGUCCUCAACCUCCAAUGCAUCCCACCACAUGAUGAAGCCUGAAGAGCCUUGGUUUUUUG | 1.29
GACCAAGCUGCCCUCAGAGUUCGAGAACAUCUUCGGAUGCAGAGGAGGCAGGCUUCGGUCGCGCGAUAGCGCCAACGUCCUCAACCUCCAAUGCAUCCCACCACAUGAUGAUGCCUGAAGAGCCUUGGUUUUGUG | -1.91
GACCAAUCUGCCCUCAGAGCUCGAGAACAUCUUCGGAUGCAGAGGAGGCAGGAUUCGGUGGCGCGAUAGCGCCAACGUCCUCAACCUCCAAUGCAUCCUACCACAUGAUGAUGCCUGAAGAGCCUUGGUUUUUUG | -4.03
GACCAAUCUGCUCUCAGAGCUCGAGAACAUCUUCGGAUGCAGAGGAGGCAGGCUUCGGUGGCGCGAUAGAGCCAACGUCCUCAACCUGCAAUGCAUCCCACCACAUGAUGAUGCCUGAAGAGCCUUGGCUUUUUG | -2.57
GACCAAUCUGCUCUCGGAGCUCGAGAACAUCUUCGGAUGCAGAGGAGGCAGGCUUCGGUGGCGCGAUAGCGCCAACGUCCUCAACCUCCAAUGCAUCCCACCACAAGAUGAUGCCUGAAGAGCCUUGGUUUUUUG | 0.278
GACCAAUCUGCCCUCAGAGCUCGAGAACAUCUUCGGAUGCAGAGGAGGCAGGCUUCGUUGGCGCGAUAGCGCCAACGUCCUCAACAUCCAAUGCAUCCCACCACAUGAUGAUGCCUUAAGAGCCUUGGUGUUUUG | -3.79
GACCAAUCUGCCCUCAGAGCUCGAGAACAUCUUCGGAUGCAGAGGAGGCGUGCUUCGGUGGCGCGAUAGCGCCAACGUCCUCAACCUCAAAUGCAUCCCACCACAUGAUGAUGCCUGAAGAGCUUUGGUUUUUUG | -4.23
GACCAAUUUGCCCUCAGAGCUUGAGAACAUCUUCGGAUGCAGAGGAGGCAGGUUUCGGUGGCGCGAUAGCGCCAACGUCCUCAACCUCCAAUGCAUCCCUCCACAUGAUGAUGCCUGAAGAGCCUUGGUUUUUUG | -5.15
GACCAAUCUGCCCUCAGAGCUCGAGAAAAUCUUCGGAUGCAGAGGAGGCGGGCUUCGGUGGUGCUAUAUCGCCAACGUCCUCAACCUCCAAUGCAUCCCACCACAUGAUGAAGCCUGAAGAGCCUUGGUUUUUUG | -3.65
GACCAACUUGCCCUCAGAGAUCGAGAACAUCUUCGGAUGCAGAGGAGGCAGGCUUCGGUGGCGCGAUAGCACCAACGUCCUCAACCUCCAAUUCAUCCCACCACAUGAUGAUGCCUGAAGAGCCUUGGUUUUUUG | -5.59
GACCAAUCUGCCCUCAGAGCUCGAGAACAUCUUCGGAUGCAGUGGAGGCAGGCUUCGGUGGCGCGAUAGCACCAACGUCCUCAACCUCCAGUGCAUCCCACCACAUGAUGAUGCCUGAAGAGCCUUGGUUUUUUG | -3.35
